# In publication PMC11139864:
# Legend:
# [1] = target: Thogoto virus (THOV) polymerase, full-length heterotrimer of PB2, PB1 and PA (Thogoto virus (isolate SiAr 126)) (UniProt Q9YNA4); assay: cryo-EM structure; transcriptional elongation sample: 3.2 uM THOVPol, 30 °C for 6 h with 2.5 uM 3' vRNA, 2.5 uM 5' vRNA, 160 uM capped primer m7GpppAmG, 1.6 mM each ATP and CTP; 25 mM Tris-HCl pH 7.5, 300 mM NaCl, 2 mM MnCl2, 8 mM TCEP, 1% glycerol; asymmetric dimer of two heterotrimers (THOVPol-EL with THOVPol-RE) beside monomeric forms
# [2] = target: Thogoto virus (THOV) polymerase, full-length heterotrimer of PB2, PB1 and PA (Thogoto virus (isolate SiAr 126)) (UniProt Q9YNA4)
# [3] = target: Thogoto virus (THOV) polymerase, full-length heterotrimer of PB2, PB1 and PA (Thogoto virus (isolate SiAr 126)) (UniProt Q9YNA4); assay: cryo-EM structure; replicative elongation sample: 3.2 uM THOVPol, 30 °C for 6 h with 1.6 uM 3' vRNA, 1.6 uM 5' vRNA, 160 uM primer pppApG, 1.6 mM each ATP and CTP; 25 mM Tris-HCl pH 7.5, 300 mM NaCl, 2 mM MnCl2, 8 mM TCEP, 1% glycerol; asymmetric dimer of two heterotrimers (THOVPol-ELR with THOVPol-RER) beside a monomeric form
substance,measurement,setting,value
"Thogoto virus (THOV) polymerase, full-length heterotrimer of PB2, PB1 and PA (from UniProt Q9YNA4 1-769; Q9YNA4 1-769; Q9YNA4 1-769) (complex)",stoichiometry N,[1],2
same,reduction of mRNA and cRNA levels in the mini-replicon assay (RT-qPCR) with PB2-HA D547A/F549A (dimer interface 1),[2],> 100 fold
same,reduction of mRNA and cRNA levels in the mini-replicon assay (RT-qPCR) with PB2-HA F134A/W138A (dimer interface 2),[2],> 100 fold
same,reduction of mRNA and cRNA levels in the mini-replicon assay (RT-qPCR) with PB2-HA Q295A/D547A/I653A (dimer interfaces 1 and 3),[2],> 100 fold
same,stoichiometry N,[3],2
